We go through three molecules from US20040091907A1 (SUGEN, published 2004).

Test [1] concerns the target T1, Glutathione-s-transferase (GST) fused PAK4 (residues 291-591) (human, UniProt O96013 291-591).
T1 construct: Bait of the phage display screen; the paragraphs that tell the kinase results say only PAK4; also called PAK4 kinase; not shown: glutathione-S-transferase (GST), protein product of the SJ26 gene, fusion partner from pGEX-4T
Nature of the test: phage display screen, GST-PAK4 (291-591) on glutathione beads, MCF7 cDNA library. The text has this: The phage display hits isolated in the screen corresponded to in-frame fusions derived from several distinct genes. One fragment was derived from the Maguin-2-like gene. Two other hits were derived from the GEF-H1S splice variant of GEF-H1.
This expression vector allowed production and expression of a gene appropriately inserted, as a fusion protein where the fusion partner is the protein product of the SJ26 gene glutathione-s-transferase (GST). The fusion partner GST allows for affinity immobilization on glutathione sepharose 4B matrix (Amersham Biosciences Cat # 17-0756-01) also known as glutathione beads. The PAK4 polypeptide immobilized to these beads was incubated with a lysate containing phage particles expressing a library of peptides derived from MCF7 (breast carcinoma tissue culture cells available from ATCC, USA) cDNA. See, Zozulya et al., Nat. Biotechnol., 17(12): p. 1193-8, 1999. Upon sequencing many of the candidates obtained in this screen, the GEF-H1S polypeptide was discovered in the clone designated 13-8. Sequencing was performed on a ABI prizm machine using standard methods provided by the manufacturer (Applied Biosystems, USA).

The target of test [2] is T2, amino-terminal regulatory domain of PAK4 alone (amino acids 1-309) (human, UniProt O96013 1-309).
T2 construct: Over-expressed in 293T cells, used as cell lysate
T2 sequence (looked up): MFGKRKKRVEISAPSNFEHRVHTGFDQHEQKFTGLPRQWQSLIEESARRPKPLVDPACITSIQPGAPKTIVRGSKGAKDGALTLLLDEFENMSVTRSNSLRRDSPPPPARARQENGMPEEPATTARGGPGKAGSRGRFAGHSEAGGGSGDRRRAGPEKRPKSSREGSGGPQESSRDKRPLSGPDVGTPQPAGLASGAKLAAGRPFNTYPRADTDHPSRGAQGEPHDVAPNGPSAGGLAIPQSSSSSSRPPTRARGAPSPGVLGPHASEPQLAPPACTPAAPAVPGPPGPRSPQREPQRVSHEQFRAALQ
Briefly: GST pull-down on glutathione beads from 293T lysate, myc immunoblot. The protocol:
An equivalent amount of beads and excess lysates (500 ug) were used. Eluates of beads and total lysates were analysed by SDS-PAGE and immunoblotted with myc or GEF-H1 antiserum; (c) represents a PAK4 gene schematic outlining the regions of PAK4 used to identify the GEF-H1 interaction domain (GID). d, alignment of the GID defined by the minimal binding region of PAK4 with PAK5 and PAK6.
These fusion proteins were bound to glutathione beads and utilized in binding assays with 293T lysates expressing exogenous PAK4.
The GST immobilized GEF-H1S polypeptide was used to conduct immunoprecipitation from the 293T cell extracts. The resulting protein complexes on the beads were identified by separating on SDS-PAGE followed by Western blotting to identify proteins that are present. The Western blot technique (Renart et al., Methods Enzymol., 104:455-60, 1984) is universally used to identify proteins using specific immunoreagents like antibodies. […] PAK4 was not present after immunoprecipitation with immobilized fusion partner GST. This interaction was limited by the presence or absence of GEF-H1S.
Background: A western blot detects proteins with antibodies after separation by electrophoresis.

The target of the next test is T3, GFP-GEF-H1 (human, UniProt Q92974 93-986).
T3 construct: The legend says GFP-GEF-H1, the text GEF-H1S; also called GEF-H1S; EGFP-GEF-H1S; not shown: EGFP from vector pEGFP-C1 (Clontech)
T3 sequence: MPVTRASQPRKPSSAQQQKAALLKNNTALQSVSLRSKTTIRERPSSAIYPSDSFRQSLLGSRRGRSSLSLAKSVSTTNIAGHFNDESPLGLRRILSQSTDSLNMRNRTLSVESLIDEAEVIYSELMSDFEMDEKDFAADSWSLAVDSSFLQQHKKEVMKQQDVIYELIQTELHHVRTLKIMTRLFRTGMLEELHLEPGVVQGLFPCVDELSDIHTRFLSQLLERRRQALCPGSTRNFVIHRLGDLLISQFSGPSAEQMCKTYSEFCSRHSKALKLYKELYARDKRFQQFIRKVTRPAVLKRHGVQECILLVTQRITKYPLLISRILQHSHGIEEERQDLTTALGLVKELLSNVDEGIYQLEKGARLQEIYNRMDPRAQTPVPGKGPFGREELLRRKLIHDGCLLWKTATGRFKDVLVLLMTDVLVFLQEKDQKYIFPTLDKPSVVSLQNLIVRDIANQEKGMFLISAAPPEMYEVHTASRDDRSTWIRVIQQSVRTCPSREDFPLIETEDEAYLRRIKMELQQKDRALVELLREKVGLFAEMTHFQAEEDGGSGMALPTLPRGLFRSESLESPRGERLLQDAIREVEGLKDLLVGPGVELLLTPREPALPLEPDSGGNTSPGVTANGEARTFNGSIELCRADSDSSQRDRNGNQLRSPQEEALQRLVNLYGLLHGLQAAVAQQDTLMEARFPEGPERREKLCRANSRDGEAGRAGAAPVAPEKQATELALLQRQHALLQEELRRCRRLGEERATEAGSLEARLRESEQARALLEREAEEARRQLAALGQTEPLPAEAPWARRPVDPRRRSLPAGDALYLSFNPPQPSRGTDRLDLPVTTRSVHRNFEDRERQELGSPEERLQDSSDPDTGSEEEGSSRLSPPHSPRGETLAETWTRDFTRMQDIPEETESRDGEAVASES
Nature of the test: biotinylated peptide on streptavidin beads, pull-down from 293T lysate, GEF-H1 immunoblot. The protocol: FIG. 1: Direct binding of GEF-H1 to PAK4. […] An equivalent amount of beads and excess lysates (500 ug) were used. Eluates of beads and total lysates were analysed by SDS-PAGE and immunoblotted with myc or GEF-H1 antiserum; (c) represents a PAK4 gene schematic outlining the regions of PAK4 used to identify the GEF-H1 interaction domain (GID). d, alignment of the GID defined by the minimal binding region of PAK4 with PAK5 and PAK6.
Biotinylated peptides derived from the N-terminal region of PAK4 sequence were used to further map the GEF-H1 binding site. […] Based on the homology within the GID of PAK4 it is possible that PAK5 and PAK6 also interact with GEF-H1 or related proteins.

B1: GEF-H1S polypeptide of phage display clone 13-8 (amino acids 763-921) (other)
chain: LRESEQARALLEREAEEARRQLAALGQTEPLPAEAPWARRPVDPRRRSLPAGDALYLSFNPPQPSRGTDRLDLPVTTRSVHRNFEDRERQELGSPEERLQDSSDPDTGSEEEGSSRLSPPHSPRGETLAETWTRDFTRMQDIPEETESRDGEAVASES
notes: Two hits came from GEF-H1S; only this one has stated limits; also called phage clone 13.8; GEF-H1 phage display hit; not shown: phage display fusion partner
Take B1: the binding result in test [1] was “binds”.

B2: GST-GEF-H1S (aa763-921) (other)
chain: LRESEQARALLEREAEEARRQLAALGQTEPLPAEAPWARRPVDPRRRSLPAGDALYLSFNPPQPSRGTDRLDLPVTTRSVHRNFEDRERQELGSPEERLQDSSDPDTGSEEEGSSRLSPPHSPRGETLAETWTRDFTRMQDIPEETESRDGEAVASES
notes: not shown: glutathione-S-transferase (GST), protein product of the SJ26 gene, fusion partner from pGEX-4T
As for B2, the binding result in test [2] is on record as “no binding”.

B3: biotinylated PAK4 peptide, amino acids 291-355 (peptide, UniProt O96013 291-355, looked up)
peptide: SPQREPQRVSHEQFRAALQLVVDPGDPRSYLDNFIKIGEGSTGIVCIATVRSSGKLVAVKKMDLR
modifications: biotinylated (position not given)
notes: Linked to streptavidin beads
For the molecule B3, in the test with GFP-GEF-H1, the binding result is on record as “no binding”.
